Experimental data: patent US7279149B2, “Amino acid composition with increased blood brain barrier permeability” (Mayo Foundation for Medical Education and Research, priority 2003, dated 2007)

What was measured:
[1] = biological target: T1, amyloid plaques in APP, PS1 mouse brain (Homo sapiens, UniProt P05067); conditions: PS1 mouse brains ex vivo following IV injection (Poduslo 2002); cited from earlier work
T1 construct: host or cells: APP, PS1 mouse brain (earlier studies: Wengenack 2000; Poduslo 2002)
T1 sequence (P05067 672-711 limits assumed): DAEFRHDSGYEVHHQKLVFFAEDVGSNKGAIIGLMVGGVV

[2] = tested on: amyloid plaques in human AD temporal lobe cortex sections; assay: Labeling of amyloid plaques in human AD brain sections in vitro (emulsion autoradiography); type: binding
Experimental: (§1) f. Labeling of Amyloid Plaques in Human AD and APP, PS1 Mouse Brain Sections In Vitro with Diamine- and Gadolinium-Substituted Aβ30 Peptides. HPLC-purified ^125I-Aβ40, ^125I-Aβ30, ^125I-[N-4ab/Q-4ab]Aβ30, ^125I-Gd[N-4ab/Q-4ab]Aβ30, or buffer was incubated with sections of unfixed AD temporal lobe cortex using the same procedure we used previously (Wengenack, T. M., et al., Neuroscience 101:939–944, 2000). Briefly, the 15 μm-sections were incubated for 3 hours at RT with 100 pM radioiodinated peptide or alone in 250 μl of TBS (50 mM Tris HCl, 138 mM sodium chloride, pH 7.0) containing 0.1% BSA, 0.6 mg/ml magnesium chloride, 0.04 mg/ml bacitracin, 0.002 mg/ml chymostatin, and 0.004 mg/ml leupeptin. The sections then underwent immunohistochemistry (IH) for amyloid using an anti-Aβ monoclonal mouse antibody (4G8, 1:1000, Signet Laboratories, Dedham, Mass.). Next, the sections were dipped in an autoradiographic emulsion (Type NTB-3, Kodak, Rochester, N.Y.) for direct comparison of ^125I-labeled amyloid deposits to anti-Aβ IH. The slides were dipped in emulsion, exposed for various durations, and developed according to the instructions. The sections were dehydrated with successive changes of ethanol and xylene and then coverslipped.

[3] = biological target: T2, amyloid plaques in APP, PS1 transgenic mouse brain (Homo sapiens, UniProt P05067); assay: Labeling of amyloid plaques in APP, PS1 transgenic mouse brain in vivo after IV injection; conditions: 21-month old APP, PS1 mice, 750 μg IV, four hours
T2 construct: from tissue; host or cells: brain of APP (Tg2576) x PS1 (M146L6.2) double transgenic mice
T2 sequence (P05067 672-711 limits assumed): as above
Experimental: a. Subjects. These evaluations were performed using transgenic mice that express two mutant human proteins associated with familial AD and have been described in detail elsewhere (Holcomb, L., et al., Nature Med. 4:97–100, 1998). Hemizygous transgenic mice (Tg2576) expressing mutant human amyloid precursor protein (APP695) (Hsiao, K., et al., Science 274:99–102, 1996) were mated with a second strain of hemizygous transgenic mice (M146L6.2) expressing mutant human presenilin 1 (PS1) (Holcomb, L., et al., supra, 1998). The animals were genotyped for the expression of both transgenes by a PCR method using a sample of mouse-tail DNA. […]
g. […] Silver grains from sections exposed for 6 days and 2 weeks were quantitated using unbiased, stereological techniques. Sections exposed for 4 or 8 weeks were somewhat overexposed such that over many of the plaques the exposed silver grains had become confluent could not be counted accurately. Silver grains were counted over plaques in three sections from each animal in the retrosplenial cortex and CA1 region of the hippocampus using a 10-μm×10-μm dissector at 400×. The mean background level of exposed silver grains was also determined for each section. The results were expressed as the mean number of silver grains/100 μm^2 minus the background. […]

[4] = biological target: T3, amyloid plaques in APP, PS1 mouse brain sections (Homo sapiens, UniProt P05067); assay: Labeling of amyloid plaques in APP, PS1 transgenic mouse brain sections in vitro; type: binding
T3 construct: from tissue; host or cells: brain of APP (Tg2576) x PS1 (M146L6.2) double transgenic mice
T3 sequence (P05067 672-711 limits assumed): as above
Experimental: as §1, with “coverslipped. […]” for “coverslipped.”

[5] = biological target: T4, amyloid plaques in APP, PS1 mice (Homo sapiens, UniProt P05067); conditions: 200 μg, PS1 mice at 27 weeks of age (Wengenack 2000); cited from earlier work
T4 construct: host or cells: APP, PS1 mouse brain (earlier studies: Wengenack 2000; Poduslo 2002)
T4 sequence (P05067 672-711 limits assumed): as above

Substance	contrast enhancement of plaques during MRI [1]	labeling of neuritic plaques ([2]; 100 pM radioiodinated peptide, 3 hours at RT, unfixed human AD temporal lobe cortex sections)	labeling of small amyloid deposits ([2]; 100 pM radioiodinated peptide, human AD sections)	exposure time required to detect exposed silver grains ([2]; human AD sections, equal amounts of peptide (100 pM))	labeling of plaques in vivo [3]	labeling of neuritic plaques ([4]; 100 pM, unfixed APP)	duration of exposure to achieve a detectable amount of silver grains ([4]; APP, equal amounts of peptide)	labeling of plaques in vivo, previous study [5]
(PUT-)Gd-Aβ40: polyamine (putrescine)-modified Gd-Aβ40 of a previous study	provide contrast enhancement of plaques							
Aβ40: human amyloid-β peptide Aβ40, radioiodinated; served as a positive control		labeled most dense-core, neuritic type plaques	labeled only a few	7 days	also labeled plaques in vivo	labeled most of the neuritic plaques	one	did not label plaques
Gd-Aβ40: Gd-DTPA substituted Aβ40 of a previous study	not to provide contrast enhancement of plaques							
